Common to all, as to conditions: both partners purified
In experiment [1] the target is T1, tropoelastin, SHELΔ26A (Synthetic Human Elastin without domain 26A) (human, UniProt P15502-2 27-724).
T1 construct: human tropoelastin without domain 26A; residues 27–724, the 60 kDa mature form of the secreted protein following removal of the signal peptide; the precursor counted on has 724 residues (isoform lacking domain 26A); contains K38 in domain 4; also called TE; full-length TE; source: expressed in bacteria, purified as described previously [23]
T1 sequence (looked up): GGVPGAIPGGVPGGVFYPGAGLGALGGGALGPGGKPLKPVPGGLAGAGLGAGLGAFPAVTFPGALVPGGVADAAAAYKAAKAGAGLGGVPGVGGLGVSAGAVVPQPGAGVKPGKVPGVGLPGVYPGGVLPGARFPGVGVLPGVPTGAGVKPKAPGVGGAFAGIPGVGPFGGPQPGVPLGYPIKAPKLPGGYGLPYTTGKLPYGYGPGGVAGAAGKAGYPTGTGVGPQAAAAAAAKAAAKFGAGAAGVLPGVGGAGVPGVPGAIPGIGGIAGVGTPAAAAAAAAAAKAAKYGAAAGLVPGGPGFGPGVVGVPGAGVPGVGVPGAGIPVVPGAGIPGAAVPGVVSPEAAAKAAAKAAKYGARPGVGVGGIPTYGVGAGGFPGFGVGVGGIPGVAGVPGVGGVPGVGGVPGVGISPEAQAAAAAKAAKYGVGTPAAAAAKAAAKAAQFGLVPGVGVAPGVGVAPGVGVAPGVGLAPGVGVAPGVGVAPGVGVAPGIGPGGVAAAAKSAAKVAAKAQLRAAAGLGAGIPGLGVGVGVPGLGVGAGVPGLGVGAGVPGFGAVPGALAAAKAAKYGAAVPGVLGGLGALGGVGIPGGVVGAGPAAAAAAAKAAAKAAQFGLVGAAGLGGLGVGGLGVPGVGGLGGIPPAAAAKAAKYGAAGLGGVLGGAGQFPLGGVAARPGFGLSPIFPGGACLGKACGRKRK
Put plainly: SEC; PF2 and TE incubated with TG2 at a 1:1 ratio, separated on a Superose 6 column in 10 mM Hepes, 500 mM NaCl, 1 mM CaCl2 (pH 7.4); fractions on SDS-PAGE.

Experiment [2] concerns the target T1, tropoelastin, SHELΔ26A (Synthetic Human …). Description: cross-linking; PF2 and TE incubated alone or together (1:1 or 2:1) at 16 °C for 2 h in 10 mM Hepes, 500 mM NaCl, 1 mM CaCl2 (pH 7.4), then with or without TG2 from guinea pig liver for a further 4 h; read by SDS-PAGE.
Experiment [3] has the same target. Put plainly: SEC-MALS; TG2 cross-linked complex eluting at ~10 ml, 0.5 mg/ml, Superose 6, 10 mM Tris–HCl (pH 7.4), 150 mM NaCl. (In general: SEC sorts molecules by how far they enter the pores of the column.)

Data on 1 molecule can be found in PMC7610145, “Transglutaminase-Mediated Cross-Linking of Tropoelastin to Fibrillin Stabilises the Elastin Precursor Prior to Elastic Fibre Assembly” (Journal of Molecular Biology, 2020).

B1: fibrillin-1 PF2 fragment (domains TB1 to TB2, encoded by exons 9–17), natively glycosylated (domain or fragment)
chain: not shown
modifications: N-linked glycan at N448
notes: fibrillin-1, fragment encompassing domains TB1 to TB2, encoded by exons 9–17; includes Q669 (TB2); SAXS data on PF2, TE and the complex are deposited in the SASDB (SAS2517, 2518, 2519); also called fibrillin PF2; fibrillin PF2 construct
B1: the “stoichiometry of the larger species” value in experiment [1] is 2 copies of each (2:2). Moreover, the entries for the “stoichiometry N” value in experiment [2] and in experiment [3] were 1 PF2:TE and ~1 PF2:TE, respectively.
